Experiment [1] has as its target TFPI KPI-2 fragment spanning the KPI-2 domain of TFPI with a C-terminal HIS6 tag (human, UniProt P10646 119-178). Put plainly: SPR (Biacore T200), bispecific captured by anti-Fab kappa antibody, antigen as analyte, 1:1 Langmuir fit. Here is the method:
(§1) Binding studies were performed on a Biacore T200 (GEHealthcare) that measures molecular interactions in real time through surface plasmon resonance. Experiments were run at 25° C. and the samples were stored at 15° C. in the sample compartment. The signal (RU, response units) reported by the Biacore is directly correlated to the mass on the individual sensor chip surfaces in four serial flow cells. Goat anti Fab Kappa Light Chain antibody (Nordic Biosite) was immobilized onto all four flow cells of a CM4 sensor chip according to the manufacturer's instructions. Capture of purified bispecific molecules was conducted by diluting the proteins into running buffer (10 mM Hepes 0.3 M NaCl, 5 mM CaCl₂, 0.05% surfactant P20, 10 mg/ml BSA, pH 7.4) and injected over flowcell 2, 3 or 4, creating a reference surface in flow cell 1 with only anti-Fab antibody immobilized. […] Binding of TFPI FL (SEQ ID NO: 1), TFPI (1-79), and TFPI KPI-2 proteins was conducted by injecting analyte (antigen) over all flow cells to allow for comparative analyses of binding to different captured bispecific molecules relative to binding to the reference surface. The TFPI (1-79) fragment spans the N-terminal and KPI-1 domain of TFPI with an N-terminally attached GSSGSSG tag (SEQ ID NO: 16). The TFPI KPI-2 fragment spans the KPI-2 domain of TFPI with a C-terminal HIS₆ tag (SEQ ID NO: 3). Antigens were diluted serially into running buffer, injected at 30 μl/min for 240 s and allowed to dissociate for 600 s or 14000 s. Prolonging the monitoring of dissociation phase for antigens that dissociates slowly with kd approaching 1E-5 s⁻¹ is crucial to get a robust value for the dissociation rate. The CM4 surface was regenerated after each injection cycle of analyte via injection of 10 mM Glycine, pH 2.1. This regeneration step removed the anti-TFPI bispecific molecule and any bound antigen from the immobilized capture antibody surface, and allowed for the subsequent binding of the next interaction sample pair.

The target in experiment [2] is T1, TFPI (1-79) fragment, N-terminal and KPI-1 domain of TFPI with an N-terminally attached GSSGSSG tag (human, UniProt P10646 29-107).
T1 construct: also called tagged TFPI KPI-1/N-terminal; TFPI KPI-1
Described as above. Here is the method: as §1

Experiment [3] has as its target T2, human TFPI alpha (full-length TFPIα) (human, UniProt P10646 29-304). Put plainly: cell-based or functional assay.
For experiment [4], the target named is T3, endogenous TFPI of human plasma (human, UniProt P10646 29-304, limits assumed). Kind of experiment: cell-based or functional assay.
In experiment [5] the target is T2, human TFPI alpha (full-length TFPIα). Kind of experiment: cell-based or functional assay. The source holds these as a separate data set.
Experiment [6] concerns the target T3, endogenous TFPI of human plasma. Put plainly: cell-based or functional assay. This is another data set of the same source.
The target of experiment [7] is TFPI (form not stated, Example 5) (UniProt P10646 29-304, limits assumed). Put plainly: method not stated.

B1: mAb 0421 (bispecific antibody, human IgG1, kappa)
heavy 1: not shown
light 1: DIVMTQTPLSLSVTPGQPASISCKSSQSLLESDGKTYLNWYLQKPGQSPQLLIYLVSILDSGVPDRFSGSGSGTDFTLKISRVEAEDVGVYYCLQATHFPQTFGGGTKVEIKRTVAAPSVFIFPPSDEQLKSGTASVVCLLNNFYPREAKVQWKVDNALQSGNSQESVTEQDSKDSTYSLSSTLTLSKADYEKHKVYACEVTHQGLSSPVTKSFNRGEC
heavy 2: not shown
light 2: GIVMTQSQKFMSTTVGDRVSITCKASQSVGPAVAWYQQKPGQSPKLLIYSASNRYTGVPDRFTGSGSGADFTLTISNLHSEDLADYFCQQYTSYPTFGGGTKLEIKRTVAAPSVFIFPPSDEQLKSGTASVVCLLNNFYPREAKVQWKVDNALQSGNSQESVTEQDSKDSTYSLSSTLTLSKADYEKHKVYACEVTHQGLSSPVTKSFNRGEC
notes: Full length human IgG1 format, made by controlled Fab-arm exchange; also called asymmetric bispecific antibody derived from mAb 0310 and mAb 0336
B1: in experiment [1], the dissociation constant Kd was determined as 0.02 nM, the koff came out at 8e-05 s⁻¹ and the kon came out at 5e+06 M⁻¹ s⁻¹. In experiment [2], the Kd was 0.3 nM, the off-rate constant (koff) was found to be 0.0001 s⁻¹ and the kon amounted to 400000 M⁻¹ s⁻¹. In addition, in experiment [3], the “EC50; thrombin generation, FVIII-neutralised plasma + 10 nM full-length TFPI alpha; single experiment” value came to 9.5 nM and the “EC50 of the thrombin generation response in FVIII-neutralised plasma + 10 nM full-length TFPI alpha” value was 9.5 nM. In experiment [4], the “EC50 (half-maximal response); thrombin generation, FVIII-neutralised plasma, no TFPI added; four-parameter fit, average of 2 experiments” value is 1.1 nM and the “EC50 of the thrombin generation response in FVIII-neutralised plasma without added TFPI” value is 1.1 nM. In addition, in experiment [5], the “Peak (nM); thrombin generation, FVIII-neutralized plasma + 10 nM TFPI alpha; 100.0 nM mAb” value worked out at 177 nM and the “ttPeak (min); thrombin generation, FVIII-neutralized plasma + 10 nM TFPI alpha; 100.0 nM mAb” value came out at 7 min. In experiment [6], the “Peak (nM); thrombin generation, FVIII-neutralized plasma, no TFPI added; 10.0 nM mAb” value is 182 nM and the “ttPeak (min); thrombin generation, FVIII-neutralized plasma, no TFPI added; 10.0 nM mAb” value turned out to be 6.9 min.

B2: BiFab 9041 (bispecific antibody)
heavy 1: EVQLVESGGGLVKPGGSLRLSCAASGFTFSNYAMSWVRQTPEKRLEWVATISRSGSYSYFPDSVQGRFTISRDNAKNSLYLQMNSLRAEDTAVYYCARLGGYDEGDAMDSWGQGTTVTVSSASTKGPSVFPLAPCSRSTSESTAALGCLVKDYFPEPVTVSWNSGALTSGVHTFPAVLQSSGLYSLSSVVTVPSSSLGTKTYTCNVDHKPSNTKVDKRVESKYGPPC
light 1: DIVMTQTPLSLSVTPGQPASISCKSSQSLLESDGKTYLNWYLQKPGQSPQLLIYLVSILDSGVPDRFSGSGSGTDFTLKISRVEAEDVGVYYCLQATHFPQTFGGGTKVEIKRTVAAPSVFIFPPSDEQLKSGTASVVCLLNNFYPREAKVQWKVDNALQSGNSQESVTEQDSKDSTYSLSSTLTLSKADYEKHKVYACEVTHQGLSSPVTKSFNRGEC
heavy 2: QVQLKQSGPGLVQPSQSLSITCTVSGFSLTNYGVHWVRQSPGKGLEWLAVIWRGGSIDYNAAFMSRLSITKDNSKSQVFFKMNSLQADDTAIYYCAKNSHGNYVGYAMDYWGQGTSVTVSSASTKGPSVFPLAPCSRSTSESTAALGCLVKDYFPEPVTVSWNSGALTSGVHTFPAVLQSSGLYSLSSVVTVPSSSLGTKTYTCNVDHKPSNTKVDKRVESKYGPPC
light 2: GIVMTQSQKFMSTTVGDRVSITCKASQSVGPAVAWYQQKPGQSPKLLIYSASNRYTGVPDRFTGSGSGADFTLTISNLHSEDLADYFCQQYTSYPTFGGGTKLEIKRTVAAPSVFIFPPSDEQLKSGTASVVCLLNNFYPREAKVQWKVDNALQSGNSQESVTEQDSKDSTYSLSSTLTLSKADYEKHKVYACEVTHQGLSSPVTKSFNRGEC
modifications: C-terminal cysteine linked through the bis-maleimide linker to the C-terminal cysteine of the other Fab's heavy chain; C-terminal cysteine linked through 1,16-bis(2,5-pyrroledione-1-yl)-4,13-diaza-7,10-dioxa-3,14-dioxohexadecane to the C-terminal cysteine of the other Fab's heavy chain
notes: also called Fab 0088 conjugated to Fab 0295
Consider B2, for which, in experiment [1], the equilibrium dissociation constant (Kd) worked out at 0.01 nM, the dissociation rate constant (koff) turned out to be 6e-05 s⁻¹ and the association rate constant (kon) is 4e+06 M⁻¹ s⁻¹. For the same molecule, in experiment [2], the Kd stood at 0.9 nM, the koff was 0.0003 s⁻¹ and the kon was 300000 M⁻¹ s⁻¹.

B3: mAb 2007 (antibody, V domains shown)
VH: EVQLVESGGGLVKPGGSLRLSCAASGFTFSNYAMSWVRQAPGKGLEWVSTISRSGSYSYYPDSVKGRFTISRDNAKNSLYLQMNSLRAEDTAVYYCARLGGYDEGDAMDSWGQGTTVTVSS
VL: DIVMTQTPLSLSVTPGQPASISCKSSQSLLESDGKTYLNWYLQKPGQSPQLLIYLVSILDSGVPDRFSGSGSGTDFTLKISRVEAEDVGVYYCLQATHFPQTFGGGTKVEIKR
notes: Grafted HzTFPI4F36 with a single A60P (Kabat) back mutation in VH
B3: in experiment [7], the “fold lower TFPI binding affinity than mAb 2021” value amounted to 10 fold.

B4: mAb 2000 (antibody, IgG4, V domains shown)
VH: EVQLVESGGGLVKPGGSLRLSCAASGFTFSNYAMSWVRQAPGKGLEWVSTISRSGSYSYYADSVKGRFTISRDNAKNSLYLQMNSLRAEDTAVYYCARLGGYDEGDAMDSWGQGTTVTVSS
VL: DIVMTQTPLSLSVTPGQPASISCKSSQSLLESDGKTYLNWYLQKPGQSPQLLIYLVSILDSGVPDRFSGSGSGTDFTLKISRVEAEDVGVYYCLQATHFPQTFGGGTKVEIKR
notes: Human kappa/IgG4 (S241P); also called initial grafted HzTFPI4F36 variant
For B4, the “fold lower TFPI binding affinity than mAb 2021” value in experiment [7] is ~1000 fold.

Source of the values: patent publication US20170260289A1 (Novo Nordisk, published 2017).
